Where a chain is given by its changes, count along the chain named.
Assays:
Experiment in all cases: ELISA, coated antigen; relative to human Id1
Human Id3: Histidine = target: T1, Human Id3: Histidine (human, UniProt Q02535 1-119, limits assumed)
T1 construct: E. coli fusion protein (vector pGW07); also called h-Id3: His; not shown: His-tag
T1 sequence (looked up): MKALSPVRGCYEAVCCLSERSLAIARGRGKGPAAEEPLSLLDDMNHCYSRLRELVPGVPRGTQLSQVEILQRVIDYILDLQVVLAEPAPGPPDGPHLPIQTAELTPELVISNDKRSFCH

Human Id4: Histidine = target: T2, Human Id4: Histidine (human, UniProt P47928 1-161, limits assumed)
T2 construct: E. coli fusion protein (vector pGW07); also called h-Id4: His; not shown: His-tag
T2 sequence (looked up): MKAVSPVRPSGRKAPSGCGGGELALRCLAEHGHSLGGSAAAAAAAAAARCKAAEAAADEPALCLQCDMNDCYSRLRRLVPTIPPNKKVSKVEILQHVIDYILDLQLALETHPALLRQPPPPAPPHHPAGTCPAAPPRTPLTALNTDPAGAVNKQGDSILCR

Mouse Id1: Histidine = target: T3, Mouse Id1: Histidine (mouse, UniProt P20067-2 1-148)
T3 construct: E. coli fusion protein (vector pGW07); also called m-Id1-His; not shown: His-tag
T3 sequence: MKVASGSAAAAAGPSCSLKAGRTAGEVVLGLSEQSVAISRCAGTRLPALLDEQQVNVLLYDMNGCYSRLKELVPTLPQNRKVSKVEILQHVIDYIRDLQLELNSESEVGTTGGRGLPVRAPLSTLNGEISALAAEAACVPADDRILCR

Mouse Id3: Histidine = target: T4, Mouse Id3: Histidine (mouse, UniProt P41133 1-119, limits assumed)
T4 construct: E. coli fusion protein (vector pGW07); also called m-Id3: His; not shown: His-tag
T4 sequence (looked up): T1 sequence (looked up) with G31S, A33S, A34T, N112K

Mouse Id4: Histidine = target: T5, Mouse Id4: Histidine (mouse, UniProt P41139 1-161, limits assumed)
T5 construct: E. coli fusion protein (vector pGW07); also called m-Id4: His; not shown: His-tag
T5 sequence (looked up): T2 sequence (looked up) with H125L, T130A, A133V

Human Id2: Histidine = target: T6, Human Id2: Histidine (human, UniProt Q02363 1-134, limits assumed)
T6 construct: E. coli fusion protein (vector pGW07); also called h-Id2: His; not shown: His-tag
T6 sequence (looked up): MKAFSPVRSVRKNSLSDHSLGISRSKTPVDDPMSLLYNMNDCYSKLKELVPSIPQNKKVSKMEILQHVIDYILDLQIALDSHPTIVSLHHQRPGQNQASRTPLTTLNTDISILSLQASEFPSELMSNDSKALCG

Measured: Cross-reactivity (%)

rabbit monoclonal anti-human Id1, clone #BCH-2/#5-3 (antibody)
< 1%: all assays above

Source: patent US20060286609A1 (BIOCHECK, published 2006)
